Data as given in patent US20110093983A1, “ALGAL GLYCEROL-3 PHOSPHATE ACYLTRANSFERASE” (National Research Council of Canada, priority 2008, published 2011).

Experiments:
yeast gat1 mutant [1] = experiment: Fatty acid composition of TAG and phospholipids from yeast gat1 mutant expressing TpGPAT1; format: cell-based, Saccharomyces cerevisiae; settings: for Proportion of Fatty Acid 16:0 / Proportion of Fatty Acid 16:1 / Proportion of Fatty Acid 18:0 / Proportion of Fatty Acid 18:1 / Proportion of Fatty Acid Sats / Proportion of Fatty Acid Unsats: 3-day induction with 2% galactose, average ± SD, three replicates
Procedure: Yeast cultures were grown at 28° C. in the presence of 2% (w/v) glucose and 1% (w/v) Tergitol NP-40 (Sigma, St. Louis, Mo., US). Expression of the transgene was induced at OD600 nm 0.2 to 0.3 by supplementing galactose to 2% (w/v). At that time, the appropriate FAs were added to a final concentration of 50 or 100 μM in the presence of 1% (w/v) Tergitol NP-40 (Sigma, St. Louis, Mo., US). Yeast cells (20 ml) were harvested after a 3-day incubation, total lipids from yeast homogenates were extracted using the procedure of Schneiter (2005). Separation of neutral lipids and polar lipids was performed by running the thin layer chromatography plates (Si 250-PA, Baker, Phillipsburg, N.J.) in a developing solvent of hexane: ether: acetic acid (70:30:1, v/v) and identified by co-migration with known standards. Spots corresponding to TAG and phospholipid were scraped off the TLC plates and were transmethylated with methanolic HCl and quantified by gas chromatography as described previously. (Zheng and Zou, 2001).
To investigate if the over-expression of TpGPAT has any effect on the fatty acids composition of yeast lipids in vivo, the gall cells harboring TpGPAT or an empty vector as control were induced for 3 days by galactose at 28° C. The total lipids was extracted and then separated into triacylglycerols (TAGS) and phospholipids by TLC for the analysis of fatty acid composition. […] Approximately 12% and 18% increase of 16:0 in phospholipids and triacylglycerols, respectively, turned 16:0 into the most dominant fatty acid in the TpGPAT expressing yeast cells, instead of 16:1 fatty acid in the mutant cells harboring the empty vector. Conversely, the unsaturated fatty acids, 16:1 and 18:1, were reduced to 15% and 21% in these two lipid species. […] Collectively, the results strongly support the finding in the in vitro substrate specificity assay that 16:0 is the most preferred substrate for TpGPAT.

yeast gat1 mutant [2] = experiment: Lipidomic analysis of phospholipids from yeast gat1 transformed with TpGPAT or GAT1, fed EPA or DHA; format: cell-based, Saccharomyces cerevisiae; settings: tandem mass spectrometer lipidomics
Description: FIG. 4 graphically depicts the results of the lipidomic analysis (fatty acid composition) of the lipids from yeast gat1 mutants transformed with either TpGPAT1 or GAT1. Yeast cells expressing TpGPAT or yeast GAT1 were fed with EPA (20:5) or DHA (22:6) upon induction of the genes. Total lipids from the yeast cells were extracted and subjected to lipidomic analysis using a tandem mass spectrometer. The results are presented as the molar ratio of EPA- or DHA-containing phospholipids (PC, PE, PS, PI) in the total phospholipids.
To further determine the role of TpGPAT in the incorporation of VLGPUFAs into glycerolipids, yeast gat1 strain transformed with TpGPAT or GAT1 under the control of the GAL1 promoter was grown in the presence of EPA (20:5) or DHA (22:6) upon induction of the genes. Phospholipids were extracted and subjected to lipidomic analysis using a tandem mass spectrometer (testing conducted by the Kansas Lipidomics Research Center). […] It was thus concluded that TpGPAT has a role in controlling PUFA accumulation in glycerolipid.

Arabidopsis thaliana = experiment: Fatty acid and oil content analysis of T2 seeds from TpGPAT transgenic Arabidopsis; format: in vivo; settings: transgenic Arabidopsis lines (GW), Napin promoter
Procedure: FIG. 5 graphically depicts the results of the analysis of the fatty acid 16:0 content of T2 seeds from TpGPAT transgenic Arabidopsis. Fatty acid analysis was performed on TpGPAT transformed Arabidopsis seeds. Fatty acid composition (as molar percentage) was determined in the seed oil extracted from 200 T2 seeds of 13 TpGPA:pSE transformed Arabidopsis lines (GW4-GW17). pSE129A empty plasmid transformed wild-type Arabidopsis was used as a control.
FIG. 7 graphically depicts the total oil content of TpGPAT transformed Arabidopsis seeds. Oil contents (as percentage of dry weight) were determined in 200 T2 seeds of the 13 TpGPA:pSE transformed Arabidopsis lines (GW4-12; GW14-17). Wild-type Arabidopsis was used as a control (Con).
The full length coding region of the TpGPAT gene was amplified using pfu DNA polymerase and primers designed with two restriction sites (KpnI and XbaI) added for subsequent cloning. Then, the PCR product was digested and inserted in a plant transformation vector (pSE129A) under the control of a seed-specific promoter (Napin). The binary vector was introduced by electroporation into Agrobacterium tumefaciens strain GV3101 containing helper plasmid pMP90 (Koncz and Schell, 1986). […]

B1: TpGPAT1: membrane-bound glycerol-3-phosphate acyltransferase from T. pseudonana, 674 amino acids, SEQ ID NO:2 (nucleotide SEQ ID NO:1) (protein, listed as Thalassiosira pseudonana)
chain: MGVEKKGTMMSELDYTKAQLAFFYIVVLLSLDMLNPVKIFLHVFPAIKSWHIATFAIACMSYIFIVNLRELLYFATKVFFHSILSIFFNDVTVVGRENIPSHGPVIFTSNHANQFMDGLMIMCTCQRTISYLVADKSWNRPIIGHLAWMMGGVPVKRAQDSACKGTGKISIDLNALAGSDAVINVVGKGTSFTSQIKAGDKIRLPNNAIGIKVESIESDESMSLKVEDGVAEVLSSHPFPEYVTYDILPRIDQKDVYQNVLEKLASGGTIGIFPEGGSHDRTDLLPLKVGVALIAYSELEKDGINVPIVPVGLNYFRAHRFRGKATVEFGSPTYIEPSTLADYKKGGADKRRVCNDLLARIENSMRSVIVSVPDFETLQTIHAARRLYRQDGRNETAEQRQDMGRRFAEGYKRVLLQLGGEPPEEWLSLQSRILAYQKELNELGIRDYQVVGLDHEEVELGSESQGHSKADTVLHRMNVFGHIVHLFVIAVLAALPAMLLNLPVGLASRIYSNRRRKVALAASKVKVKGYDVMLSERVLACIVLVPSLWVVYGLLLSLFTSLDGPSLAVCFTCFPLFSYWSIMATESGMVDIKDLRPYVMRMIPSARRRLAALPATRKALRSDLRAMIKKIGPSLGDIYYEKDLNWQKIQMETKRMSMEELDPAQKDEAAKKEE
- Proportion of Fatty Acid 16:0 (yeast gat1 mutant [1]; Phospholipids): 31.10 ± 3.78 mol %
- Proportion of Fatty Acid 16:1 (yeast gat1 mutant [1]; Phospholipids): 34.15 ± 2.74 mol %
- Proportion of Fatty Acid 18:0 (yeast gat1 mutant [1]; Phospholipids): 8.92 ± 1.49 mol %
- Proportion of Fatty Acid 18:1 (yeast gat1 mutant [1]; Phospholipids): 25.45 ± 2.25 mol %
- Proportion of Fatty Acid Sats (yeast gat1 mutant [1]; Phospholipids): 40.02 ± 4.57 mol %
- Proportion of Fatty Acid Unsats (yeast gat1 mutant [1]; Phospholipids): 59.83 ± 4.61 mol %
- Proportion of Fatty Acid 16:0 (yeast gat1 mutant [1]; TAG): 41.80 ± 2.17 mol %
- Proportion of Fatty Acid 16:1 (yeast gat1 mutant [1]; TAG): 29.15 ± 1.61 mol %
- Proportion of Fatty Acid 18:0 (yeast gat1 mutant [1]; TAG): 9.17 ± 1.22 mol %
- Proportion of Fatty Acid 18:1 (yeast gat1 mutant [1]; TAG): 18.94 ± 0.99 mol %
- Proportion of Fatty Acid Sats (yeast gat1 mutant [1]; TAG): 50.97 ± 2.85 mol %
- Proportion of Fatty Acid Unsats (yeast gat1 mutant [1]; TAG): 48.49 ± 2.44 mol %
- Increase of 18:0 versus empty vector (yeast gat1 mutant [1]; yeast gat1, both TAG and phospholipids): 3-4%
- Reduction of unsaturated fatty acids 16:1 and 18:1 in phospholipids versus empty vector (yeast gat1 mutant [1]; yeast gat1, phospholipids): 15%
- Increase of 16:0 in triacylglycerols versus empty vector (yeast gat1 mutant [1]; yeast gat1, triacylglycerols): ~18%
- Reduction of unsaturated fatty acids 16:1 and 18:1 in triacylglycerols versus empty vector (yeast gat1 mutant [1]; yeast gat1, triacylglycerols): 21%
- Molar percentage of DHA in phospholipids (yeast gat1 mutant [2]; yeast gat1 fed DHA (22:6)): 0.563%
- Molar percentage of EPA in phospholipids (yeast gat1 mutant [2]; yeast gat1 fed EPA (20:5)): 3.696%
- 16:0 content of T2 seeds compared to non-transformed control (Arabidopsis thaliana): More than half of the identified transgenic lines (GW) showed an increase of 16:0
